In assay [1] the target is eHead-H3HK68_v1 (wild-type H3 head domain monomer) (influenza A virus) (UniProt Q91MA7). As to the kind of experiment: SPR. For orientation: Surface plasmon resonance follows binding to a sensor surface in real time, without labels.
In assay [2] the target is eHead_H1Solomon (wild-type H1 head domain monomer) (influenza A virus) (UniProt B4URD6). As to the kind of experiment: SPR.
The target in assay [3] is H1 HA A/Texas/36/1991 (H1N1), recombinant soluble trimer (influenza A virus). As to the kind of experiment: ELISA on coated recombinant HA.
The target in assay [4] is H12 HA A/duck/Alberta/60/1976, recombinant (influenza A virus). As to the kind of experiment: ELISA on coated recombinant HA. Background: In an ELISA, binding on a coated surface is turned into a signal by an enzyme label.
Assay [5] has as its target H14 HA A/mallard duck/Astrakhan/263/1982, recombinant (influenza A virus). Description: ELISA on coated recombinant HA.
Assay [6] concerns the target A/California/07/2004 (Influenza A virus). As to the kind of experiment: ELISA on coated recombinant HA.
The target of assay [7] is A/Duck/Czechoslovakia/1956 (Influenza A virus). Description: ELISA on coated recombinant HA.
For assay [8], the target named is H7 HA A/Shanghai/2/2013 (H7N9), recombinant uncleaved trimer (influenza A virus). Description: ELISA on coated recombinant HA.
In assay [9] the target is A/Chicken/Germany/N/1949 (Influenza A virus). As to the kind of experiment: ELISA on coated recombinant HA.
The target in assay [10] is H2 HA A/Singapore/1/1957, recombinant soluble trimer (influenza A virus). Description: ELISA on coated recombinant HA.
Assay [11] addresses H5 HA A/Indonesia/05/2005 (H5N1), recombinant (influenza A virus). Description: ELISA on coated recombinant HA.
The target in assay [12] is H3 HA A/Texas/50/2012, recombinant soluble trimer (influenza A virus). Description: ELISA on coated recombinant HA.
In assay [13] the target is A/Taiwan/2/2013 (Influenza A virus). As to the kind of experiment: ELISA on coated recombinant HA.
Assay [14] deals with H5 HA A/Vietnam/1203/2004 (H5N1), recombinant (influenza A virus). As to the kind of experiment: ELISA on coated recombinant HA.
Assay [15] has as its target A/Turkey/Wisconsin/1/1966 (Influenza A virus). Description: ELISA on coated recombinant HA.
The target of assay [16] is H15 HA A/shearwater/Western Australia/2576/1979, recombinant (influenza A virus). As to the kind of experiment: ELISA on coated recombinant HA.
Assay [17] addresses H1 HA A/Solomon Islands/03/2006 (H1N1), recombinant soluble trimer (influenza A virus). Description: ELISA on coated recombinant HA.
Assay [18] has as its target A/Fort Monmouth/1/1947 (Influenza A virus). Description: ELISA on coated recombinant HA.
In assay [19] the target is A/Turkey/Ontario/6118/1967 (Influenza A virus). As to the kind of experiment: ELISA on coated recombinant HA.
Assay [20] concerns the target A/Yokohama/110/2019 (Influenza A virus). Description: ELISA on coated recombinant HA.
The target in assay [21] is A/Hong Kong/125/2017 (Influenza A virus). As to the kind of experiment: ELISA on coated recombinant HA.
In assay [22] the target is A/Tennessee/3/2019 (Influenza A virus). As to the kind of experiment: ELISA on coated recombinant HA.
The target in assay [23] is H2 HA A/Singapore/1/1957, recombinant soluble trimer (influenza A virus). Description: ELISA on coated recombinant HA. This is another data set of the same source.
Assay [24] concerns the target H5 HA A/Indonesia/05/2005 (H5N1), recombinant (influenza A virus). As to the kind of experiment: ELISA on coated recombinant HA. This is another data set of the same source.
Assay [25] deals with H3 HA A/Texas/50/2012, recombinant soluble trimer (influenza A virus). As to the kind of experiment: ELISA on coated recombinant HA. The source holds these as a separate data set.
The target in assay [26] is A/Puerto Rico/8/1934 (Influenza A virus). Description: ELISA on coated recombinant HA.
The target in assay [27] is A/Taiwan/2/2013 (Influenza A virus). As to the kind of experiment: ELISA on coated recombinant HA. The source holds these as a separate data set.
The target in assay [28] is H5 HA A/Vietnam/1203/2004 (H5N1), recombinant (influenza A virus). As to the kind of experiment: ELISA on coated recombinant HA. This is another data set of the same source.
Assay [29] concerns the target H1 HA A/Texas/36/1991 (H1N1), recombinant soluble trimer (influenza A virus). As to the kind of experiment: ELISA.
The target of assay [30] is H14 HA A/mallard duck/Astrakhan/263/1982, recombinant (influenza A virus). Description: ELISA.
The target of assay [31] is H3 HA A/Minnesota/11/10, recombinant soluble trimer (influenza A virus). Description: ELISA.
Assay [32] has as its target H7 HA A/New York/107/2003, recombinant (influenza A virus). Description: ELISA.
Assay [33] has as its target H7 HA A/Shanghai/2/2013 (H7N9), recombinant uncleaved trimer (influenza A virus). As to the kind of experiment: ELISA.
Assay [34] concerns the target H16 HA A/black-headed gull/Sweden/4/1999, recombinant (influenza A virus). As to the kind of experiment: ELISA.
Assay [35] deals with H3 HA A/Switzerland/9715293/2013, recombinant soluble trimer (influenza A virus). As to the kind of experiment: ELISA.
Assay [36] has as its target H9 HA A/Hong Kong/1073/99, recombinant (influenza A virus). Description: ELISA.
Assay [37] has as its target H13 HA A/gull/Maryland/704/1977, recombinant (influenza A virus). As to the kind of experiment: ELISA.
The target in assay [38] is H2 HA A/Singapore/1/1957, recombinant soluble trimer (influenza A virus). As to the kind of experiment: ELISA.
The target in assay [39] is H5 HA A/Indonesia/05/2005 (H5N1), recombinant (influenza A virus). As to the kind of experiment: ELISA.
Assay [40] has as its target H3 HA A/Texas/50/2012, recombinant soluble trimer (influenza A virus). As to the kind of experiment: ELISA.
Assay [41] addresses H5 HA A/Vietnam/1203/2004 (H5N1), recombinant (influenza A virus). As to the kind of experiment: ELISA.
Assay [42] has as its target H1 HA A/Solomon Islands/03/2006 (H1N1), recombinant soluble trimer (influenza A virus). Description: ELISA.
In assay [43] the target is A/Duck/Czechoslovakia/1956 (Influenza A virus). Description: ELISA on coated recombinant HA; row printed A/Duck/Czechoslovakia/1958.
Assay [44] concerns the target H1 HA A/Texas/36/1991 (H1N1), recombinant soluble trimer (influenza A virus). As to the kind of experiment: ELISA on coated recombinant HA; row printed A/Texas/38/1991.
For assay [45], the target named is purified HA protein of H1N1 A/California/07/2009 (Sino Biological 11085-V08B) (influenza A virus). Description: cell-based or functional assay.
In assay [46] the target is H7 HA A/New York/107/2003, recombinant (influenza A virus).
Assay [47] concerns the target H12 HA A/duck/Alberta/60/1976, recombinant (influenza A virus). As to the kind of experiment: ELISA on coated recombinant HA. The source holds these as a separate data set.
The target of assay [48] is H3 HA A/Hong Kong/1/1968 (H3N2), recombinant soluble trimer (influenza A virus) (UniProt Q91MA7). Description: ELISA on coated recombinant HA.
Assay [49] has as its target H3 HA A/Victoria/3/1975 (H3N2) (influenza A virus). As to the kind of experiment: BLI, biotinylated HA on streptavidin sensor. On the technique in general: Biolayer interferometry detects binding as a change in optical thickness at a sensor tip.
Assay [50] addresses H5 HA A/Indonesia/05/2005 (H5N1), recombinant (influenza A virus). Description: BLI, biotinylated HA on streptavidin sensor.
In assay [51] the target is H5 HA A/Vietnam/1203/2004 (H5N1), recombinant (influenza A virus). As to the kind of experiment: BLI, biotinylated HA on streptavidin sensor.
The target of assay [52] is H1 HA A/Solomon Islands/03/2006 (H1N1), recombinant soluble trimer (influenza A virus). Description: BLI, biotinylated HA on streptavidin sensor.
The target in assay [53] is H3 HA A/Victoria/361/2011 (H3N2) (influenza A virus). Description: BLI, biotinylated HA on streptavidin sensor.
The target in assay [54] is H12 HA A/duck/Alberta/60/1976, recombinant (influenza A virus). As to the kind of experiment: ELISA.
In assay [55] the target is H15 HA A/shearwater/Western Australia/2576/1979, recombinant (influenza A virus). Description: ELISA.

Read-outs that look alike come from different tables or passages of the source.

Broadly, the Kd is the constant that tells how readily two partners part at equilibrium. Take C05 (antibody): the Kd amounted to 0.17 µM in assay [1] and 0.086 µM in [2].
For CH65 (antibody), the equilibrium dissociation constant (Kd) in assay [2] amounted to 0.34 µM.
In general, EC50 refers to the concentration that produces a half-maximal response. Take “FluA-20 (hybridoma-produced IgG) (antibody)”: the EC50 in assay [3] stood at 0.009 mg/L; in [4], 0.006 mg/L; in assay [5], 0.007 mg/L; in [6], 0.008 mg/L; in [7], 0.007 mg/L; in [8], 0.012 mg/L. In addition, the EC50 was determined as 0.037 mg/L in [9]; 0.009 mg/L in assay [10]; 0.016 mg/L in [11]; 0.006 mg/L in [12]; 0.061 mg/L in assay [13]; 0.142 mg/L in [14]. Further, the 50% effective concentration (EC50) in assay [15] came to 0.022 mg/L; in [16], 0.007 mg/L; in [17] it was 0.008 mg/L; in assay [18], 0.007 mg/L; in [19] it was 0.004 mg/L; in assay [20], 0.009 mg/L. For the same substance, the EC50 in [21] came out at 0.009 mg/L; in [22], 0.007 mg/L; in [23], 0.007 mg/L; in assay [24], 0.015 mg/L; in [25] it was 0.008 mg/L; in assay [26], 0.005 mg/L. Further, the EC50 is 0.073 mg/L in assay [27]; 0.036 mg/L in assay [28]; 0.004 mg/L in [29]; 0.013 mg/L in [30]; > 10 mg/L in [31]; 0.808 mg/L in [32]. Also, the EC50 was 0.066 mg/L in assay [33]; > 10 mg/L in assay [34]; 0.019 mg/L in assay [35]; 0.009 mg/L in assay [36]; 0.07 mg/L in [37]; 0.007 mg/L in assay [38]. Moreover, the EC50 in assay [39] stood at 0.085 mg/L; in [40] it was 0.004 mg/L; in [41], 0.283 mg/L; in assay [42] it was 0.005 mg/L; in assay [43], 0.006 mg/L; in [44] it was 0.021 mg/L. In addition, in assay [46], the EC50 was > 2.5 mg/L. In addition, the NK cell activation (% of NK cells with IFN-γ and/or CD107a) at 0.1 µg/mL FluA-20 in [45] worked out at 1.3%. The substance also returned an NK cell activation (% of NK cells with IFN-γ and/or CD107a) at 1 µg/mL FluA-20 in assay [45] of 9.2%. Besides, in [45], the NK cell activation (% of NK cells with IFN-γ and/or CD107a) at 10 µg/mL FluA-20 came out at 14.6%.
In the case of MEDI-8852 (antibody), the EC50 in assay [47] was found to be 0.361 mg/L; in [19], 0.081 mg/L; in assay [20], 0.043 mg/L; in [21] it was 0.069 mg/L; in assay [22], 0.014 mg/L; in assay [23], 0.023 mg/L. Also, the EC50 was determined as 0.134 mg/L in assay [24]; 0.024 mg/L in assay [25]; 0.013 mg/L in [26]; 0.157 mg/L in assay [27]; 0.009 mg/L in assay [28]; 0.014 mg/L in assay [48]. Besides, the results for the half-maximal effective concentration (EC50) in assay [43], in assay [44] and in assay [46] were 0.018 mg/L, 0.063 mg/L and 0.117 mg/L, respectively.
With rFluA-20 Fab, the Kd in assay [49] turned out to be 3.46 µM; in assay [50], 0.088 µM; in assay [51] it was 0.122 µM; in assay [52], 0.002 µM; in assay [53], 0.015 µM.
In the case of “rFluA-20 IgG (recombinant FluA-20) (antibody)”, the half-maximal effective concentration (EC50) in assay [3] turned out to be 0.008 mg/L; in assay [4], 0.006 mg/L; in [5], 0.007 mg/L; in assay [6], 0.009 mg/L; in [7], 0.007 mg/L; in [8], 0.013 mg/L. In addition, the EC50 in [9] amounted to 0.041 mg/L; in [10], 0.011 mg/L; in [11], 0.016 mg/L; in assay [12], 0.007 mg/L; in assay [13] it was 0.063 mg/L; in [14] it was 0.133 mg/L. The EC50 amounted to 0.016 mg/L in [15]; 0.007 mg/L in assay [16]; 0.008 mg/L in assay [17]; 0.007 mg/L in assay [18]; 0.008 mg/L in assay [29]; 0.006 mg/L in assay [54]. The EC50 came to 0.007 mg/L in assay [30]; 0.013 mg/L in assay [33]; 0.007 mg/L in assay [36]; 0.011 mg/L in assay [38]; 0.016 mg/L in assay [39]; 0.007 mg/L in assay [40]. For the same substance, the results for the concentration giving a half-maximal response (EC50) in [55] and in assay [42] were 0.007 mg/L and 0.008 mg/L, respectively.
